# Tested on: 3-methylcrotonic acid
# Format: biochemical, Yersinia frederiksenii
# Parameters: key: “+” representing a low increase in activity; “++++” representing a high increase in activity
row,Molecule,Activity relative to WT
1,P284E-N287Q-S322T-N388M-K394R-C430N-L432F-L434W-S436N-dA463-A470S (protein) MFLKSLREQINLLKRQGDLRIINRPVDSYLEAAAIIRRSTETKAPVPLMTNIKGYPGCSIVGGLAALSSNPEYPLSRVAMSLGLSTTASAQSIVQYLIDGLKKTPYLPVEIDSNSAPCKQNILRGEDASLAHFPIPQVHQHDGNRYVNTWGVFIVESPDGQWCNWSIQRVQYLNDRQMIALVFPSQHISDIWEEWVKIGKPMPYALVQGCEPIVPYIAGLPLLERNVNEAEYIGALYGKGIEVVKCETHDLRVPASSEVVIEGYFAITREGVEGPFGEFAGYIENEQSLQPILSITAISWQDDPIWPVVAEGKPVDEYHTCTGIGDAAAIQNVLLTANLPVSFVWVPLYSACHLMIVSINRHWRQTHPDLTSEQLTKKVGDVIHQTRMSIKLPRIVVLDDDVDPADTESLLWALATRIHPERKRYFYESNIFPWLNCYSEEERHNRKGKRVIIDALLPENHGAISSFDYSYPDDIKQRVLMHWETDFSHD,++++
2,I283T-N285P-N287T-L289Y-Q290E-S322T-N388M-K394R-C430A-L432F-L434W-S436N-G462P-A463P (protein) MFLKSLREQINLLKRQGDLRIINRPVDSYLEAAAIIRRSTETKAPVPLMTNIKGYPGCSIVGGLAALSSNPEYPLSRVAMSLGLSTTASAQSIVQYLIDGLKKTPYLPVEIDSNSAPCKQNILRGEDASLAHFPIPQVHQHDGNRYVNTWGVFIVESPDGQWCNWSIQRVQYLNDRQMIALVFPSQHISDIWEEWVKIGKPMPYALVQGCEPIVPYIAGLPLLERNVNEAEYIGALYGKGIEVVKCETHDLRVPASSEVVIEGYFAITREGVEGPFGEFAGYTPPETSYEPILSITAISWQDDPIWPVVAEGKPVDEYHTCTGIGDAAAIQNVLLTANLPVSFVWVPLYSACHLMIVSINRHWRQTHPDLTSEQLTKKVGDVIHQTRMSIKLPRIVVLDDDVDPADTESLLWALATRIHPERKRYFYESAIFPWLNCYSEEERHNRKGKRVIIDALLPENHPPISSFDYAYPDDIKQRVLMHWETDFSHD,++++
3,N388M-K394R-C430A-L432F-L434W-S436N (protein) MFLKSLREQINLLKRQGDLRIINRPVDSYLEAAAIIRRSTETKAPVPLMTNIKGYPGCSIVGGLAALSSNPEYPLSRVAMSLGLSTTASAQSIVQYLIDGLKKTPYLPVEIDSNSAPCKQNILRGEDASLAHFPIPQVHQHDGNRYVNTWGVFIVESPDGQWCNWSIQRVQYLNDRQMIALVFPSQHISDIWEEWVKIGKPMPYALVQGCEPIVPYIAGLPLLERNVNEAEYIGALYGKGIEVVKCETHDLRVPASSEVVIEGYFAITREGVEGPFGEFAGYIPNENSLQPILSITAISWQDDPIWPVVAEGKPVDEYHTCSGIGDAAAIQNVLLTANLPVSFVWVPLYSACHLMIVSINRHWRQTHPDLTSEQLTKKVGDVIHQTRMSIKLPRIVVLDDDVDPADTESLLWALATRIHPERKRYFYESAIFPWLNCYSEEERHNRKGKRVIIDALLPENHGAISSFDYAYPDDIKQRVLMHWETDFSHD,+
4,I283T-N285P-E286D-N287T-Q290E-S322T-N388M-K394R-C430A-L432F-L434W-S436N-G462P-A463P (protein) MFLKSLREQINLLKRQGDLRIINRPVDSYLEAAAIIRRSTETKAPVPLMTNIKGYPGCSIVGGLAALSSNPEYPLSRVAMSLGLSTTASAQSIVQYLIDGLKKTPYLPVEIDSNSAPCKQNILRGEDASLAHFPIPQVHQHDGNRYVNTWGVFIVESPDGQWCNWSIQRVQYLNDRQMIALVFPSQHISDIWEEWVKIGKPMPYALVQGCEPIVPYIAGLPLLERNVNEAEYIGALYGKGIEVVKCETHDLRVPASSEVVIEGYFAITREGVEGPFGEFAGYTPPDTSLEPILSITAISWQDDPIWPVVAEGKPVDEYHTCTGIGDAAAIQNVLLTANLPVSFVWVPLYSACHLMIVSINRHWRQTHPDLTSEQLTKKVGDVIHQTRMSIKLPRIVVLDDDVDPADTESLLWALATRIHPERKRYFYESAIFPWLNCYSEEERHNRKGKRVIIDALLPENHPPISSFDYAYPDDIKQRVLMHWETDFSHD,++++
